Test results published in patent US20070105771A1 (Y S THERAPEUTICS, published 2007).

Target: T1, Purified recombinant human CD26 (rhDipeptidyl peptidase IV), R&D Systems CAT #1180-SE (human, UniProt P27487 29-766)
T1 construct: Bought recombinant protein; also called hu-CD26; soluble human CD26
Experiment: SPR (Biacore)

T1 sequence (P27487 29-766 limits assumed): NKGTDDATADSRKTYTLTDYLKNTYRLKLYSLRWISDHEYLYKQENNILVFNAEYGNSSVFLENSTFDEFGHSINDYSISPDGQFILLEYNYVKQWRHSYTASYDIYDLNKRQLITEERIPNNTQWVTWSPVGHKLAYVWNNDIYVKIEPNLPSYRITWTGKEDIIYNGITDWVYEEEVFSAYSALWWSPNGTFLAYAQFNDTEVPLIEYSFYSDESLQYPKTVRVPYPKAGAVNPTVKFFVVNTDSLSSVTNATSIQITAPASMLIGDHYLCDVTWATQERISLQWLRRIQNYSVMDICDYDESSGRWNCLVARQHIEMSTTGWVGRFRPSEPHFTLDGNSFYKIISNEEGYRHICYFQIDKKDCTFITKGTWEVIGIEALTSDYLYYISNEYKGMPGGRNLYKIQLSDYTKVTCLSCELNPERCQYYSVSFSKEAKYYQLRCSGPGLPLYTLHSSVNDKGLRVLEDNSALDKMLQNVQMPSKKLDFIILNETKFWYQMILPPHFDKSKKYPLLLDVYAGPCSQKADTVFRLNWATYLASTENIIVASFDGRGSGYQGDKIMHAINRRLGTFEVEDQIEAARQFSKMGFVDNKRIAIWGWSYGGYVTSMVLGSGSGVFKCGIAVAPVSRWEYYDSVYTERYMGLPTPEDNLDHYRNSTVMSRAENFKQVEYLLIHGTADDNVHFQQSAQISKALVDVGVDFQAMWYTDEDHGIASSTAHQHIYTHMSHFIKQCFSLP

B1: mouse monoclonal antibody CM03 (14D10) (antibody, V domains shown)
VH: QVKLQESGPGLVQPSQTLSITCTVSGFSLTTYGVHWVRQSPGKGLEWLGVIWGGGRTDYDAAFISRLSISKDNSKSQVFFKMNSLQANDTAIYYCVRNRHDWFDYWGQGTTVTVSS
VL: DIQMTQSPSSLSASLGDRVTITCSASQGIRNSLNWYQQKPDGAVKLLIYYSSNLHSGVPSRFSGSGSGTDFSLTISNLEPEDIATYYCQQSIKLPFTFGSGTKLEIK
notes: Mouse monoclonal antibody; also called murine MAb CM03
  Kd: 1.63 nM
